Laboratory results taken from US20240279318A1.
Numbering of substitutions follows the chain as printed.

B1: AS167821A-AS167821A-TCE-KIH (bispecific antibody, human IgG1, kappa, L234A L235A)
heavy: EVQLVESGGGLVQPGRSLRLSCAASGFTFDDYAMHWVRQAPGKGLEWVSGISWNSGSIGYADSVKGRFTISRDNAKNSLYLQMNSLRAEDTALYYCAKDSRGYGDYRLGGAYWGQGTLVTVSSASTKGPSVFPLAPSSKSTSGGTAALGCLVKDYFPEPVTVSWNSGALTSGVHTFPAVLQSSGLYSLSSVVTVPSSSLGTQTYICNVNHKPSDTKVDKKVEPKSCDKTHTCPPCPAPEAAGGPSVFLFPPKPKDTLMISRTPEVTCVVVDVSHEDPEVKFNWYVDGVEVHNAKTKPREEQYNSTYRVVSVLTVLHQDWLNGKEYKCKVSNKALPAPIEKTISKAKGQPREPQVYTLPPSREEMTKNQVSLWCLVKGFYPSDIAVEWESNGQPENNYKTTPPVLDSDGSFFLYSKLTVDKSRWQQGNVFSCSVMHEALHNHYTQKSLSLSPGK
light: not shown
chain: QVRLVESGGGSVQAGGSLRLSCAASGRTYSTYAMGWFRQAPGKEREGVATIYIGSGRTYYVDSVKGRFTISQDNAKNTLYLQMNNLKPEDTAMYYCTADVDPYESSWSRGLGYWGQGTQVTVSSGGGGSGGGGSGGGGSGGGGSGGGGSQVRLVESGGGSVQAGGSLRLSCAASGRTYSTYAMGWFRQAPGKEREGVATIYIGSGRTYYVDSVKGRFTISQDNAKNTLYLQMNNLKPEDTAMYYCTADVDPYESSWSRGLGYWGQGTQVTVSSEPKSSDKTHTCPPCPAPEAAGGPSVFLFPPKPKDTLMISRTPEVTCVVVDVSHEDPEVKFNWYVDGVEVHNAKTKPREEQYNSTYRVVSVLTVLHQDWLNGKEYKCKVSNKALPAPIEKTISKAKGQPREPQVYTLPPSREEMTKNQVSLSCAVKGFYPSDIAVEWESNGQPENNYKTTPPVLDSDGSFFLVSKLTVDKSRWQQGNVFSCSVMHEALHNRYTQKSLSLSPGK
B2: 67-AS170036 VL1VH1-57K98F108A (scFv)
scFv: QSALTQPRSVSGSPGQSVTISCAGTSSDVGSENYVSWYQQHPGKAPKLMIYQVNKRASGVPDRFSGSKSGNTASLTISGLQAEDEADYYCASYRSSDFNIVFGGGTKLTVLGGGGSGGGGSGGGGSEVQLVESGGGLVQPGGSLRLSCAASGFTFSSYAMSWVRQAPGKGLEWVSTINSGTGKPYYADSVKGRFTISRDNSKNTLYLQMNSLRAEDTAVYYCAKNFFDGSWFLAPPAMDYWGQGTLVTVSSHHHHHH
B3: 70-AS170036 VL1VH1-57K98I108A (scFv)
scFv: B2 scFv with F98I
B4: 75-AS170036 VL1VH1-57K98Q108S (scFv)
scFv: B2 scFv with F98Q, A234S
B5: 82-AS170036 VL1VH1-57M98Q108A (scFv)
scFv: B2 scFv with F98Q, K183M
B6: AS170036 VL1VH1-VHG56N (scFv)
scFv: B2 scFv with F98H, G182N, K183S, A234G
B7: AS170036 VL1VH1-VLH98Q (scFv)
scFv: B2 scFv with F98Q, K183S, A234G
B8: AS170036 VL1VH1-VHG108A (scFv)
scFv: B2 scFv with F98H, K183S
B9: AS170036 VL1VH1-VHG56Y (scFv)
scFv: B2 scFv with F98H, G182Y, K183S, A234G
B10: AS170036 VL1VH1-VHS57K (scFv)
scFv: B2 scFv with F98H, A234G
B11: AS170036 VL1VH1-VHG108S (scFv)
scFv: B2 scFv with F98H, K183S, A234S
B12: AS170036 VL1VH1-VHS57M (scFv)
scFv: B2 scFv with F98H, K183M, A234G
B13: AS170036 VL1VH1-VLH98I (scFv)
scFv: B2 scFv with F98I, K183S, A234G
B14: AS170036 VL1VH1-VHG108D (scFv)
scFv: B2 scFv with F98H, K183S, A234D
B15: AS170036 VL1VH1-VHS57H (scFv)
scFv: B2 scFv with F98H, K183H, A234G
B16: AS170036 VL1VH1-VLH98F (scFv)
scFv: B2 scFv with K183S, A234G

Molecular target: other peptide-loaded T2 cells
Assay: cell-based or functional assay

| Binder | T cell redirected cell killing (LDH), 1 nM BsAb [%] |
| --- | --- |
| B1 | < 20 |

Molecular target: group 2: CDC14A, PTP4A1, BRCA2 and RCL1 homologous peptide/HLA-A*02:01 complexes (mixed)
Assay: SPR (BIAcore T200), crude scFv captured, mixed complexes flowed over

| SPR binding level [RU] | Binder |
| --- | --- |
| 22.3 | B2 |
| 21.9 | B3 |
| 14.3 | B4 |
| 16.6 | B5 |

Molecular target: group 3: OR1I1, OR51B6, OR6C1, ATG9A, RP1 and NR2E1 homologous peptide/HLA-A*02:01 complexes (mixed)
Assay: as above

| SPR binding level [RU] | Binder |
| --- | --- |
| 6.3 | B2 |
| 5.8 | B3 |
| 3.9 | B4 |
| 4.7 | B5 |

Molecular target: group 1: ZNF566 and ARNTL homologous peptide/HLA-A*02:01 complexes (mixed)
Assay: as above

| SPR binding level [RU] | Binder |
| --- | --- |
| 35.8 | B2 |
| 33.7 | B3 |
| 22.6 | B4 |
| 28.2 | B5 |

Molecular target: AFP158 homologous peptides/HLA-A*02:01 complexes
Assay: SPR, crude scFv captured, complexes as analyte

| SPR response [RU] | Binder |
| --- | --- |
| < 3.5 | B6 |
| < 3.5 | B7 |
| < 3.5 | B8 |
| < 3.5 | B9 |
| < 3.5 | B10 |
| < 3.5 | B11 |
| < 3.5 | B12 |
| < 3.5 | B13 |
| < 3.5 | B14 |
| < 3.5 | B15 |
| < 3.5 | B16 |
